This is an account of results in patent US20090118195A1, “Molecules Which Promote Hematopoiesis” (priority 2004, published 2009).

*1 amine or outer side, *2 acyl side, *3 side chain or, on linkers, in order; H or OH if unused. Primed or numbered codes have the meaning given here. Where no end group is shown, it is not given here. [ ]: non-standard residue; d: D form. Als″ = residue of 5-aminolevulinic acid, O=C(CCC(=O)[*:2])CN[*:1]

One test concerns TF-1 cells. Description: Proliferation assay with TF-1 cells by MTT (monomers). It is filed as cell-based. Particulars: MTT-assay data, dose-response calculated with GraphPad. The procedure: Proliferation assay with TF-1 cells by MTT
TF-1 Cells in logarithmic growth phase (˜2.10^5-1.10^6 cells/ml; RPMI medium; 20% fetal calf serum; supplemented with Penicillin, streptomycin, L-Glutamine; 0.5 ng/ml Interleukin 3) are washed (centrifuge 5 min. 1500 rpm and resuspend in RPMI complete without IL3 at 500.000 cells/ml) and precultured before start of the assay for 24 h without IL-3. At the next day the cells are seeded in 24- or 96-well plates usually using at least 6 concentrations and 4 wells per concentration containing at least 10.000 cells/well per agent to be tested. Each experiment includes controls comprising recombinant EPO as a positive control agent and wells without addition of cytokine as negative control agent. Peptides and EPO-controls are prediluted in medium to the desired concentrations and added to the cells, starting a culture period of […] under standard culture conditions (37° C., 5% carbon dioxide in the gas phase, atmosphere saturated with water). Concentrations always refer to the final concentration of agent in the well during this 4-day culture period.
At day 4, prior to start of the analysis, a dilution series of a known number of TF-1 cells is prepared in a number of wells (01250015000/10000120000150000 cells/well in 100 μl medium). These wells are treated in the same way as the test wells and later provide a calibration curve from which cell numbers can be determined. Having set up these reference wells, MTS and PMS from the MTT proliferation kit (Promega, CellTiter 96 Aqueous non-radioactive cell proliferation assay) are thawed in a 37° C. waterbath and 100 μl of PMS solution are added to 2 ml of MTS solution. 20 μl of this mixture are added to each well of the assay plates and incubated at 37° C. for 3-4 h. 25 μl of 10% sodium dodecylsulfate in water are added to each well prior to measurement E492 in an ELISA Reader.
Using graphical evaluations as shown in FIGS. 17 and 18 based on calculations of the dose-response relationship using the program GraphPad the following EC50 values were determined on the basis of MTT-assay data: […]

Test [1] addresses T1, EPO receptor (on TF-1 cells) (UniProt P19235 25-508, limits assumed).
T1 sequence (looked up): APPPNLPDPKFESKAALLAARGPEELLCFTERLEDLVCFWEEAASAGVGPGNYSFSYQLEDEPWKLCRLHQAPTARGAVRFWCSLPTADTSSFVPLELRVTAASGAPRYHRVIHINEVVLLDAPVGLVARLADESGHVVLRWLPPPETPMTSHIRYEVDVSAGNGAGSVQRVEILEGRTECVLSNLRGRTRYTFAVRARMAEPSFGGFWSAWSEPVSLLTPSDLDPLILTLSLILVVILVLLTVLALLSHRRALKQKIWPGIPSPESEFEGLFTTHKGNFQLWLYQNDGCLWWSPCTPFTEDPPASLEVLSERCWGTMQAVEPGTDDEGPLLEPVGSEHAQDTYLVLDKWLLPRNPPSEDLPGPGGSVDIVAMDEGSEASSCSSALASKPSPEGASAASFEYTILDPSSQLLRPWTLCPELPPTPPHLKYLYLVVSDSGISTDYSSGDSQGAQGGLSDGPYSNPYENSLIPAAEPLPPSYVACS
Description: cell-based or functional assay.

As for GGTYSCHFGGLTWVCKPQGG, the EC50 values entry in the test on TF-1 cells is listed as “no activity”.

Turning to GGTYSCHF-(Als)-LTWVCKKQGG [SEQ ID NO 8], the EC50 in the test with TF-1 cells was 5 µM. As for GGTYSCHF-(Als)-LTWVCKPQGG [SEQ ID NO 7], the EC50 with TF-1 cells was 5.26 µM.

B1: SEQ ID NO 8: GGTYSCHF-(Als)-LTWVCKKQGG (peptide)
peptide: GGTYSCHF[Als″]LTWVCKKQGG
modifications: cysteine pairing not given here
As for B1, the “EC50, TF-1 cell proliferation (MTT assay)” value (“EC50 … (MTT assay)” for short) in test [1] was 5 µM.

B2: GGTYSCHFGPLTWVCKKQGG (peptide)
peptide: GGTYSCHFGPLTWVCKKQGG
For the molecule B2, in test [1], the “EC50 … (MTT assay)” value turned out to be 2.52 µM.

B3: SEQ ID NO 6: GGTYSCHFGRLTWVCKKQGG (peptide)
peptide: GGTYSCHFGRLTWVCKKQGG
For the molecule B3, the “EC50 … (MTT assay)” value in test [1] was determined as 4.97 µM.

B4: SEQ ID NO 4: GGTYSCHFGKLTWVCKPQGG (peptide)
peptide: GGTYSCHFGKLTWVCKPQGG
With B4, in test [1], the “EC50 … (MTT assay)” value was found to be 4.66 µM.

B5: SEQ ID NO 2: GGTYSCHFGKLTWVCKKQGG (peptide)
peptide: GGTYSCHFGKLTWVCKKQGG
As to B5, the “EC50 … (MTT assay)” value in test [1] worked out at 3.28 µM.

B6: SEQ ID NO 7: GGTYSCHF-(Als)-LTWVCKPQGG (peptide)
peptide: GGTYSCHF[Als″]LTWVCKPQGG
modifications: cysteine pairing not given here
On to B6, for which, in test [1], the “EC50 … (MTT assay)” value came out at 5.26 µM.

B7: GGTYSCHFAKLTWVCKKQGG (peptide)
peptide: GGTYSCHFAKLTWVCKKQGG
Regarding B7, in test [1], the “EC50 … (MTT assay)” value amounted to 5.04 µM.

B8: SEQ ID NO 5: GGTYSCHFGRLTWVCKPQGG (peptide)
peptide: GGTYSCHFGRLTWVCKPQGG
Take B8: the “EC50 … (MTT assay)” value in test [1] turned out to be 5.16 µM.

By EC50 is commonly meant the concentration needed to bring the measured effect to its halfway point.
